Our source for the Kd values is PMC5605238.

One data set has as its target T1, RecQ4 (Homo sapiens, UniProt O94761 1-1208).
T1 sequence: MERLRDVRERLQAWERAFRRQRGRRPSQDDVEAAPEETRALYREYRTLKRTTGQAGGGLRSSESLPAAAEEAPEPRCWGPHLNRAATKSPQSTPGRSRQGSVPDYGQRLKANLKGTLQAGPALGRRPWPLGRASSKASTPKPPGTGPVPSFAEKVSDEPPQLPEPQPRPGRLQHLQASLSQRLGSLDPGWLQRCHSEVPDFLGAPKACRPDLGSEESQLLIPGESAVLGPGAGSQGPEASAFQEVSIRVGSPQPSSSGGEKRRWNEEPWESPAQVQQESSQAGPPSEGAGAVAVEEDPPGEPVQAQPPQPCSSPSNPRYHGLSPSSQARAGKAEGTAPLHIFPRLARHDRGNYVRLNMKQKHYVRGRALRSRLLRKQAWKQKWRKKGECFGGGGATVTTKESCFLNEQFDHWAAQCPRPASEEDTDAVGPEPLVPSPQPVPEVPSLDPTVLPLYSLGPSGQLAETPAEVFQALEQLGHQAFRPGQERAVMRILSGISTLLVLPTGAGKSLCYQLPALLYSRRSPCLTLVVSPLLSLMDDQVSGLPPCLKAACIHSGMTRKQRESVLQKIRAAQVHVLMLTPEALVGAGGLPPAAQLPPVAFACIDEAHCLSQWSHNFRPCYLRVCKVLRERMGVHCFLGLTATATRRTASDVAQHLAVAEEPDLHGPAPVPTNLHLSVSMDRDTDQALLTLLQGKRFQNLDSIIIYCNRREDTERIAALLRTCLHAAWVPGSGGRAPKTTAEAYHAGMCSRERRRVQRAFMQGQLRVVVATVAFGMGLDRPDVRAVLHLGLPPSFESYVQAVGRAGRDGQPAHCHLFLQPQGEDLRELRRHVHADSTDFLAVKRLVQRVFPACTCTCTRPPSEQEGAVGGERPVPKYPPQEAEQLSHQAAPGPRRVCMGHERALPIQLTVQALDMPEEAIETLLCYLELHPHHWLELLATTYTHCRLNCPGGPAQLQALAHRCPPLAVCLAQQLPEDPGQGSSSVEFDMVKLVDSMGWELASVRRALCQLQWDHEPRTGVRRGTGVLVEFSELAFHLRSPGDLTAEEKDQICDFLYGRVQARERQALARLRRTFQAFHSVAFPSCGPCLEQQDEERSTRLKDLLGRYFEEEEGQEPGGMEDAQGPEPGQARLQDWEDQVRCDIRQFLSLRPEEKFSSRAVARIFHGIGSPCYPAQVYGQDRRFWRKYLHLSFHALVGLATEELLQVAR
Description: EMSA.

The target in a further data set is T2, Hrq1 (Saccharomyces cerevisiae, UniProt Q05549 1-1077).
T2 sequence: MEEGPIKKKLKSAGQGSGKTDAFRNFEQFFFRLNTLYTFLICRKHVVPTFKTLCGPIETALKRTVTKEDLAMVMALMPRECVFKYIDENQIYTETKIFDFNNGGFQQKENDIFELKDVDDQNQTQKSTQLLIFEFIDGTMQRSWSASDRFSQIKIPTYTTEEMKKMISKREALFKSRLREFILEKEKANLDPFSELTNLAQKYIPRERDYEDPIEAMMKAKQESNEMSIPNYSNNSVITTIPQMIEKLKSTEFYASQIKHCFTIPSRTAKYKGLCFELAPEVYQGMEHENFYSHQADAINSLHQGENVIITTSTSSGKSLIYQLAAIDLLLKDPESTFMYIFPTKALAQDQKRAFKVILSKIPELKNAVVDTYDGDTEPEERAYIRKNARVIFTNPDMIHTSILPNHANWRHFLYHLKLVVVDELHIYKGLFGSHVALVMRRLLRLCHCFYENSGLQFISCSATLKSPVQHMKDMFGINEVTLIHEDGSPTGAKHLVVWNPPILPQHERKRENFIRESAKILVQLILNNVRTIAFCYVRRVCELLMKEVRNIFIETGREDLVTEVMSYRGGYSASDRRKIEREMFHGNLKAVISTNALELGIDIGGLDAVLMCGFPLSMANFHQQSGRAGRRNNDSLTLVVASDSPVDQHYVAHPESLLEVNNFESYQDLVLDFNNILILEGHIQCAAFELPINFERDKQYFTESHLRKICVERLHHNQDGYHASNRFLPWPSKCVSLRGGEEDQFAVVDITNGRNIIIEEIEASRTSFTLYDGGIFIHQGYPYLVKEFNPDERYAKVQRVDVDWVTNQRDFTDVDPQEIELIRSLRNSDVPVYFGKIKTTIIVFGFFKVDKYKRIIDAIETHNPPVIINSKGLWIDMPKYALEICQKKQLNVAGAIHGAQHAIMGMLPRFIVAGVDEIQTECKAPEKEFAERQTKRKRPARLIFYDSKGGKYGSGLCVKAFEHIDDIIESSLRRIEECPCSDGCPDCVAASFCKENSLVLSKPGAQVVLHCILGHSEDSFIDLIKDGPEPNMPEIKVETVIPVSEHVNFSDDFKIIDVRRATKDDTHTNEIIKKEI
The data set is described as follows: EMSA.

B1: Poly(dT) Fork (dsDNA)
DNA 1: TTTTTTTTTTTTTTTTTTTTTTTTTGTGTCACTCACATAGCGTTC
DNA 2: GAACGCTATGTGAGTGACACTTTTTTTTTTTTTTTTTTTTTTTTT
Consider B1, for which the Kd in the data set with RecQ4 was 50.9 ± 10.4 nM; with Hrq1 it was 6.5 ± 0.5 nM.

B2: Human Tel Fork (Poly(TTAGGG) Fork) (dsDNA)
DNA 1: TTAGGGTTAGGGTTAGGGTTAGGGTGTGTCACTCACATAGCGTTC
DNA 2: GAACGCTATGTGAGTGACACTTAGGGTTAGGGTTAGGGTTAGGGT
Take B2: the Kd with RecQ4 was determined as 39.7 ± 8.3 nM; with Hrq1 it was 15.7 ± 1.7 nM.

B3: D-loop (structured_DNA)
DNA 1: GGGTGAACCTGCAGGTGGGCGGCTGCTCATCGTAGGTTAGTGGTAGAATTCGGCAGCGTC
DNA 2: GACGCTGCCGAATTCTACCATGCCTTGCTAGGACATCTTTGCCCACCTGCAGGTTCACCC
DNA 3: TAAGAGCAAGATGTTCTATAAAAGATGTCCTAGCAAGGCA
As to B3, the Kd is 12.6 ± 1.8 nM with RecQ4 and 9.9 ± 0.7 nM with Hrq1.

B4: Holliday junction (HJ) (structured_DNA)
DNA 1: GACGCTGCCGAATTCTGGCTTGCTAGGACATCTTTGCCCACGTTGACCC
DNA 2: TGGGTCAACGTGGGCAAAGATGTCCTAGCAATGTAATCGTCTATGACGTT
DNA 3: CAACGTCATAGACGATTACATTGCTAGGACATGCTGTCTAGAGACTATCGA
DNA 4: ATCGATAGTCTCTAGACAGCATGTCCTAGCAAGCCAGAATTCGGCAGCGT
For the molecule B4, the Kd with RecQ4 is 90.1 ± 23.4 nM; with Hrq1, 79.2 ± 22.7 nM.

B5: 25-nt Random Fork (dsDNA)
DNA 1: ACCGTTGTGCAACTGAGTGGACAACGTGTCACTCACATAGCGTTC
DNA 2: GAACGCTATGTGAGTGACACCAACAGGTGAGTCAACGTGTTGCCA
Turning to B5, in the data set with RecQ4, the Kd came out at 108 ± 32.5 nM.

B6: 5' tail (dsDNA)
DNA 1: ACCGTTGTGCAACTGAGTGGACAACGTGTCACTCACATAGCGTTC
DNA 2: GAACGCTATGTGAGTGACAC
Regarding B6, the Kd with RecQ4 is 102 ± 29.4 nM; with Hrq1 it was 154 ± 44.6 nM.

B7: 3' tail (dsDNA)
DNA 1: GAACGCTATGTGAGTGACACCAACAGGTGAGTCAACGTGTTGCCA
DNA 2: GTGTCACTCACATAGCGTTC
Turning to B7, the Kd with RecQ4 worked out at 21.8 ± 4.2 nM; in the data set with Hrq1 it was 141 ± 59.4 nM.

B8: G4 (structured_DNA)
DNA: AAAGGGGGAGCTGGGGTAGATGGGAATGTGAGGGCAACAGGTGAGTCAACGTGTTGCCA
For B8, the values for the Kd in the data set with RecQ4 and with Hrq1 were 12.3 ± 2.5 nM and 17.6 ± 2.2 nM, respectively.

B9: Poly(dT) 40mer ssDNA (ssDNA)
DNA: TTTTTTTTTTTTTTTTTTTTTTTTTTTTTTTTTTTTTTTT
Regarding B9, the Kd in the data set with RecQ4 was found to be 2.38 ± 0.15 nM; with Hrq1 it was 3.45 ± 0.19 nM.

B10: Yeast Tel Fork (Poly(TG1-3) Fork) (dsDNA)
DNA 1: GGTGTGGTGTGGGTGTGGTGTGGGTGTGTCACTCACATAGCGTTC
DNA 2: GAACGCTATGTGAGTGACACTGGGTGTGGTGTGGGTGTGGTGTGG
Regarding B10, the figures for the Kd in the data set with RecQ4 and with Hrq1 were 18.5 ± 3.1 nM and 3.5 ± 0.4 nM, respectively.

B11: Bubble (dsDNA)
DNA 1: GGTGAACCTGCAGGTGGGCGGCTGCTCATCGTAGGTTAGTTGGTAGAATTCGGCAGCGTC
DNA 2: GACGCTGCCGAATTCTAGGTTGATTGGATGCTACTCGTCGGCGCCACCTGCAGGTTCACC
B11: the Kd was 16.8 ± 2.3 nM in the data set with RecQ4 and 36.1 ± 4.9 nM in the data set with Hrq1.
